Experiments:
[1] = biological target: Aβ1-42 (low-molecular weight, HFIP-treated, Th-T aggregation assay); assay: cell-based or functional assay
[2] = biological target: pre-aggregated Aβ1-42 (Th-T disaggregation assay); assay: cell-based or functional assay
[3] = biological target: Aβ1-42 library peptide 11; assay: peptide library ELISA, Ab 10 µg/ml
[4] = biological target: Aβ1-42 library peptide 12; assay: peptide library ELISA, Ab 10 µg/ml
[5] = biological target: Aβ1-42 library peptide 1; assay: peptide library ELISA, Ab 10 µg/ml
[6] = biological target: Aβ1-42 library peptide 27; assay: peptide library ELISA, Ab 10 µg/ml
[7] = biological target: Aβ1-42 library peptide 13; assay: peptide library ELISA, Ab 10 µg/ml
[8] = biological target: Aβ1-42 library peptide 22; assay: peptide library ELISA, Ab 10 µg/ml
[9] = biological target: Aβ1-42 library peptide 6; assay: peptide library ELISA, Ab 10 µg/ml
[10] = biological target: Aβ1-42 library peptide 26; assay: peptide library ELISA, Ab 10 µg/ml
[11] = biological target: Aβ1-42 library peptide 8; assay: peptide library ELISA, Ab 10 µg/ml
[12] = biological target: Aβ1-42 library peptide 21; assay: peptide library ELISA, Ab 10 µg/ml
[13] = biological target: Aβ1-42 library peptide 16; assay: peptide library ELISA, Ab 10 µg/ml
[14] = biological target: Aβ1-42 library peptide 15; assay: peptide library ELISA, Ab 10 µg/ml
[15] = biological target: Aβ1-42 library peptide 28; assay: peptide library ELISA, Ab 10 µg/ml
[16] = biological target: Aβ1-42 library peptide 24; assay: peptide library ELISA, Ab 10 µg/ml
[17] = biological target: Aβ1-42 library peptide 29; assay: peptide library ELISA, Ab 10 µg/ml
[18] = biological target: Aβ1-42 library peptide 19; assay: peptide library ELISA, Ab 10 µg/ml
[19] = biological target: Aβ1-42 library peptide 3; assay: peptide library ELISA, Ab 10 µg/ml
[20] = biological target: Aβ1-42 library peptide 18; assay: peptide library ELISA, Ab 10 µg/ml
[21] = biological target: Aβ1-42 library peptide 14; assay: peptide library ELISA, Ab 10 µg/ml
[22] = biological target: Aβ1-42 library peptide 25; assay: peptide library ELISA, Ab 10 µg/ml
[23] = biological target: Aβ1-42 library peptide 20; assay: peptide library ELISA, Ab 10 µg/ml
[24] = biological target: Aβ1-42 library peptide 4; assay: peptide library ELISA, Ab 10 µg/ml
[25] = biological target: Aβ1-42 library peptide 2; assay: peptide library ELISA, Ab 10 µg/ml
[26] = biological target: Aβ1-42 library peptide 10; assay: peptide library ELISA, Ab 10 µg/ml
[27] = biological target: Aβ1-42 library peptide 32; assay: peptide library ELISA, Ab 10 µg/ml
[28] = biological target: Aβ1-42 library peptide 31; assay: peptide library ELISA, Ab 10 µg/ml
[29] = biological target: Aβ1-42 library peptide 7; assay: peptide library ELISA, Ab 10 µg/ml
[30] = biological target: Aβ1-42 library peptide 9; assay: peptide library ELISA, Ab 10 µg/ml
[31] = biological target: Aβ1-42 library peptide 23; assay: peptide library ELISA, Ab 10 µg/ml
[32] = biological target: Aβ1-42 library peptide 5; assay: peptide library ELISA, Ab 10 µg/ml
[33] = biological target: Aβ1-42 library peptide 30; assay: peptide library ELISA, Ab 10 µg/ml
[34] = biological target: Aβ1-42 library peptide 17; assay: peptide library ELISA, Ab 10 µg/ml
[35] = biological target: Aβ1-42 library peptide 33; assay: peptide library ELISA, Ab 10 µg/ml

Sequence of Aβ1-42 (low-molecular weight, HFIP-treated, Th-T aggregation assay) (peptide, as listed by the source, form in doubt): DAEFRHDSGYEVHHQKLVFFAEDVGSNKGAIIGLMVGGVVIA
Sequence of pre-aggregated Aβ1-42 (Th-T disaggregation assay) (peptide, as listed by the source, form in doubt): as above

inhibition of Aβ1-42 aggregation (Th-T fluorescence), molar ratio 1:10 [1] [%]	inhibition of Aβ1-42 aggregation (Th-T fluorescence), molar ratio 1:100 [1] [%]	disaggregation of pre-aggregated Aβ1-42 (Th-T fluorescence), molar ratio 1:10 [2] [%]	disaggregation of pre-aggregated Aβ1-42 (Th-T fluorescence), molar ratio 1:100 [2] [%]	O.D. [3] [O.D.]	O.D. [4] [O.D.]	O.D. [5] [O.D.]	O.D. [6] [O.D.]	O.D. [7] [O.D.]	O.D. [8] [O.D.]	O.D. [9] [O.D.]	O.D. [10] [O.D.]	O.D. [11] [O.D.]	O.D. [12] [O.D.]	O.D. [13] [O.D.]	O.D. [14] [O.D.]	O.D. [15] [O.D.]	O.D. [16] [O.D.]	O.D. [17] [O.D.]	O.D. [18] [O.D.]	Binder	other results
69	34	52	22	0.11	0.24	0.1	0.13	0.17	0.1	0.11	0.12	0.11	0.1	0.14	0.14	0.12	0.1	0.2	0.1	ACI-11-Ab-9 (antibody, V domains shown, also called FG1F9E4) VH: QVQLQQSDAELVKPGASVKISCKVSGYTFTDHTIHWMKQRPEQGLEWIGYIYPRDGSTKYNEKFKGKATLTADKSSSTAYMQLNSLTSEDSAVYFCARDYGYAFDYWGQGTTLTVSS VL: QAVVTQESALTTSPGGTVILTCRSSTGAVTTSNYANWVQEKPDHLFTGLIGGTSNRAPGVPVRFSGSLIGDKAALTITGAQTEDDAMYFCALWYSTHYVFGGGTKVTVL	O.D. [19]: 0.12 O.D.; O.D. [20]: 0.11 O.D.; O.D. [21]: 0.16 O.D.; O.D. [22]: 0.11 O.D.; O.D. [23]: 0.1 O.D.; O.D. [24]: 0.11 O.D.; O.D. [25]: 0.1 O.D.; O.D. [26]: 0.13 O.D.; O.D. [27]: 0.12 O.D.; O.D. [28]: 0.12 O.D.; O.D. [29]: 0.11 O.D.; O.D. [30]: 0.11 O.D.; O.D. [31]: 0.11 O.D.; O.D. [32]: 0.11 O.D.; O.D. [33]: 0.11 O.D.; O.D. [34]: 0.13 O.D.; O.D. [35]: 0.11 O.D.
66	30	54	18	0.11	0.21	0.1	0.12	0.15	0.1	0.1	0.12	0.1	0.09	0.14	0.1	0.11	0.1	0.11	0.1	ACI-12-Ab-11 (antibody, V domains shown, also called FK2A6A6) VH: QVQLQQSDAELVKPGASVKISCKVSGYTFTDHTIHWMKQRPEQGLEWIGYIYPRDGSTKYNEKFKGKATLTADKSSSTAYMQLNSLTSEDSAVYFCARDYGYAFDYWGQGTTLTVSS VL: QAVVTQESALTTSPGGTVILTCRSSTGAVTTSNYANWVQEKPDHLFTGLIGGTSNRAPGVPVRFSGSLIGDKAALTITGAQTEDDAMYFCALWYSTHYVFGGGTKVTVL	O.D. [19]: 0.11 O.D.; O.D. [20]: 0.1 O.D.; O.D. [21]: 0.12 O.D.; O.D. [22]: 0.11 O.D.; O.D. [23]: 0.1 O.D.; O.D. [24]: 0.1 O.D.; O.D. [25]: 0.1 O.D.; O.D. [26]: 0.1 O.D.; O.D. [27]: 0.11 O.D.; O.D. [28]: 0.11 O.D.; O.D. [29]: 0.1 O.D.; O.D. [30]: 0.1 O.D.; O.D. [31]: 0.1 O.D.; O.D. [32]: 0.1 O.D.; O.D. [33]: 0.11 O.D.; O.D. [34]: 0.12 O.D.; O.D. [35]: 0.11 O.D.

Source: patent EP2170953B1 (AC Immune S.A., dated 2015)
